{
  "source": "patent US20230212587A1",
  "about": "“Mutant Hydroxyphenylpyruvate Dioxygenase Polypeptide, Encoding Gene Thereof and Use Therefor” (Beijing Dabeinong Biotechnology Co., Ltd., priority 2019, published 2023)",
  "molecules": {"B1": {"name": "GmHPPD-02: native Glycine max HPPD, SEQ ID NO: 75 (protein)", "chain": "MPMYTPSLSAPSSNHIQPSVTLPLYITTTKLNLKQQHHTTPMPIPMCNEIQAQAQAQAQPGFKLVGFKNFVRTNPKSDRFQVNRFHHIEFWCTDATNASRRFSWGLGMPIVAKSDLSTGNQIHASYLLRSGDLSFLFSAPYSPSLSAGSSAASSASIPSFDAATCLAFAAKHGFGVRAIALEVADAEAAFSASVAKGAEPASPPVLVDDRTGFAEVRLYGDVVLRYVSYKDAAPQAPHADPSRWFLPGFEAAASSSSFPELDYGIRRLDHAVGNVPELAPAVRYLKGFSGFHEFAEFTAEDVGTSESGLNSVVLANNSETVLLPLNEPVYGTKRKSQIETYLEHNEGAGVQHLALVTHDIFTTLREMRKRSFLGGFEFMPSPPPTYYANLHNRAADVLTVDQIKQCEELGILVDRDDQGTLLQIFTKPVGDRPTIFIEIIQRIGCMVEDEEGKVYQKGACGGFGKGNFSELFKSIEEYEKTLEAKRTA", "modifications": "Glycine max; GmHPPD Amino Acid Sequence"}, "B2": {"name": "GmHPPDm-F372A-02: Glycine max HPPD mutant F372A, SEQ ID NO: 78 (protein)", "chain": "MPMYTPSLSAPSSNHIQPSVTLPLYITTTKLNLKQQHHTTPMPIPMCNEIQAQAQAQAQPGFKLVGFKNFVRTNPKSDRFQVNRFHHIEFWCTDATNASRRFSWGLGMPIVAKSDLSTGNQIHASYLLRSGDLSFLFSAPYSPSLSAGSSAASSASIPSFDAATCLAFAAKHGFGVRAIALEVADAEAAFSASVAKGAEPASPPVLVDDRTGFAEVRLYGDVVLRYVSYKDAAPQAPHADPSRWFLPGFEAAASSSSFPELDYGIRRLDHAVGNVPELAPAVRYLKGFSGFHEFAEFTAEDVGTSESGLNSVVLANNSETVLLPLNEPVYGTKRKSQIETYLEHNEGAGVQHLALVTHDIFTTLREMRKRSFLGGFEFMPSPPPTYYANLHNRAADVLTVDQIKQCEELGILVDRDDQGTLLQIATKPVGDRPTIFIEIIQRIGCMVEDEEGKVYQKGACGGFGKGNFSELFKSIEEYEKTLEAKRTA", "modifications": "GmHPPDm-F372A Amino Acid Sequence"}},
  "tested_on": "Arabidopsis thaliana T1 plants",
  "test": "Topramezone tolerance of transgenic Arabidopsis thaliana T1 plants (pesticide damage grade by bleached leaf area, score, resistance evaluation)",
  "assay_type": "in vivo",
  "details": "HPPDs from different species, 7 DAT; for Classification and statistics of pesticide damage grade Grade 0 / Classification and statistics of pesticide damage grade Grade 1 / Classification and statistics of pesticide damage grade Grade 2 / Classification and statistics of pesticide damage grade Grade 3: number of plants (of 16) in this grade; for Scores: score for pesticide damage 0-100",
  "summary_of_the_method": "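Eighteen days after sowing, wild-type and HPPD-transgenic T1 Arabidopsis receive a topramezone spray at 1×, 2× or 4× field rate (25–100 g ai/ha) or water. Seven days later each plant is graded by its proportion of bleached leaf area.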",
  "data": [
    {"molecule": "B1", "values": [
      {"measurement": "Classification and statistics of pesticide damage grade Grade 0", "setting": "topramezone 25 g ai/ha (1x)", "result": 0},
      {"measurement": "Classification and statistics of pesticide damage grade Grade 1", "setting": "topramezone 25 g ai/ha (1x)", "result": 0},
      {"measurement": "Classification and statistics of pesticide damage grade Grade 2", "setting": "topramezone 25 g ai/ha (1x)", "result": 0},
      {"measurement": "Classification and statistics of pesticide damage grade Grade 3", "setting": "topramezone 25 g ai/ha (1x)", "result": 16},
      {"measurement": "Classification and statistics of pesticide damage grade Grade 0", "setting": "topramezone 100 g ai/ha (4x)", "result": 0},
      {"measurement": "Classification and statistics of pesticide damage grade Grade 1", "setting": "topramezone 100 g ai/ha (4x)", "result": 0},
      {"measurement": "Classification and statistics of pesticide damage grade Grade 2", "setting": "topramezone 100 g ai/ha (4x)", "result": 0},
      {"measurement": "Classification and statistics of pesticide damage grade Grade 3", "setting": "topramezone 100 g ai/ha (4x)", "result": 16},
      {"measurement": "Scores", "setting": "topramezone 25 g ai/ha (1x)", "result": 100},
      {"measurement": "Scores", "setting": "topramezone 100 g ai/ha (4x)", "result": 100},
      {"measurement": "Resistance evaluation", "setting": "topramezone 25 g ai/ha (1x)", "result": "non-resistant (non-resistant plants (scores 68-100))"},
      {"measurement": "Resistance evaluation", "setting": "topramezone 100 g ai/ha (4x)", "result": "non-resistant (non-resistant plants (scores 68-100))"}
    ]},
    {"molecule": "B2", "values": [
      {"measurement": "Classification and statistics of pesticide damage grade Grade 0", "setting": "topramezone 25 g ai/ha (1x)", "result": 0},
      {"measurement": "Classification and statistics of pesticide damage grade Grade 1", "setting": "topramezone 25 g ai/ha (1x)", "result": 12},
      {"measurement": "Classification and statistics of pesticide damage grade Grade 2", "setting": "topramezone 25 g ai/ha (1x)", "result": 4},
      {"measurement": "Classification and statistics of pesticide damage grade Grade 3", "setting": "topramezone 25 g ai/ha (1x)", "result": 0},
      {"measurement": "Classification and statistics of pesticide damage grade Grade 0", "setting": "topramezone 100 g ai/ha (4x)", "result": 0},
      {"measurement": "Classification and statistics of pesticide damage grade Grade 1", "setting": "topramezone 100 g ai/ha (4x)", "result": 0},
      {"measurement": "Classification and statistics of pesticide damage grade Grade 2", "setting": "topramezone 100 g ai/ha (4x)", "result": 0},
      {"measurement": "Classification and statistics of pesticide damage grade Grade 3", "setting": "topramezone 100 g ai/ha (4x)", "result": 16},
      {"measurement": "Scores", "setting": "topramezone 25 g ai/ha (1x)", "result": 42},
      {"measurement": "Scores", "setting": "topramezone 100 g ai/ha (4x)", "result": 100},
      {"measurement": "Resistance evaluation", "setting": "topramezone 25 g ai/ha (1x)", "result": "poorly resistant (poorly resistant plants (scores 34-67))"},
      {"measurement": "Resistance evaluation", "setting": "topramezone 100 g ai/ha (4x)", "result": "non-resistant (non-resistant plants (scores 68-100))"}
    ]}
  ]
}
